# Laboratory results published in patent US8688427B2, “Enzyme catalysts for diels-alder reactions” (University of Washington, priority 2008, dated 2014).
# B1: DA_20_10: DA_20_04 with A272N, Q149R, A173C (protein)
# chain: MEIPVIEPLFTKVTEDIPGATGPVFDKNGDFYIVAPYVEVNGKPAGEILRIDLKTGKKTVICKPEVNGYGGIPIGCQCDRDANQLFVADMRLGLLVVQTDGTFEEIAKKDSEGRRMQGCAYCAFDYEGNLWITAPAGEVAPADFTISLREKFGSIYCFTTDGQMIQVDTAFQCPAGIAVRHMNDGRPYQLIVAEQPTKKLWSYDIKGPAKIENKKVWGHIPGTHKGGAAGMDFDEDNNLLVANWGSSHIEVFGPDGGQPKMRIRCPFEKPANLHFKPQTKTIFVTEHENNAVWKFEWQRNGKKQYCETLKFGIFGSLEHHHHHH
# modifications: Enzyme catalyst for Diels-Alder reaction
# notes: DA_20_04 with A272N, Q149R, A173C
# How the values were obtained:
# Format in all cases: biochemical
# [1] = Plate assay of crude cell lysate, second round of active site optimization; settings: Combinatorial Mutation Results; 4 colonies/Kunkel assayed
# Experimental: Since it was unreasonable to prepare the 176 enzyme variants in large scale, a plate assay was developed in which colonies directly from a Kunkel mutagenesis (8) reaction could be screened. Kunkel mutagenesis reactions were transformed directly into BL21(DE3)™ (Invitrogen) in order to generate each of the desired mutants. Four colonies from each plated reaction was picked and grown at 37° C. in 0.5 mL of LB-Kanamycin overnight. […]. This culture was grown for 2-3 hours at 37° C., after which 50 μL of 10 mM IPTG was added to each well (0.5 mM Final) in order to induce expression. The cells were then grown for 24 hours at 18° C., harvested, and stored at −20° C. until ready for assaying. To assay, crude cell lysate was prepared by resuspending the cells in 500 uL of PBS and lysing through 3 freeze/thaw cycles (15 minutes at −80° C., 40 minutes at 25° C.), followed by centrifugation at 4000 rpm for 30 minutes. […] Samples from each reaction were then quenched and product detected using a liquid chromatography-tandem mass spectroscopy.
# To help remove some of this noise, samples showing WT activity were discarded if at least 2 of the other colonies picked from that Kunkel reaction did show an effect on activity (either greater or less than WT). […] The relative effect of each mutation was calculated. […]
# [2] = Production run and effects of knocking out the catalytic residues; settings: higher enzyme concentrations: 1 mM diene, 50 mM dienophile, 200 μM protein, PBS, 298K
# Experimental: The reaction was carried out in 1 mM diene, 50 mM dienophile, 200 μM enzyme, in PBS at 298K. The proteins assayed are DA—20—10 (υ), Y121F (▴), Q195E (x), and tela scaffold (*), uncatalyzed (λ).
# To determine whether the observed activity depends on the designed active site, we investigated the contributions of the designed catalytic residues in DA—20—10 to catalysis. Glutamine 195 was mutated into a glutamate (Q195E) and tyrosine 121 was mutated into a phenylalanine (Y121F). We had originally incorporated a glutamine rather than a glutamate at this position, despite the fact that the carboxylate should make a stronger hydrogen bond with the diene carbamate. This hydrogen bond should increase the energy of the diene HOMO (and thus decrease the energy gap with the dienophile LUMO), and more greatly stabilize the transition state. However, we were concerned that the substantial free energy cost of desolvating the carboxylate would considerably reduce binding affinity for the diene. […] The Y121F mutation decreases catalytic activity by 27-fold, consistent with the removal of a hydrogen bond that contributes to dienophile binding, stabilizes the dienophile LUMO, and is enhanced in the transition state.
# Timepoints were taken and measured as previously described over a period of 60 hours.
# [3] = Kinetic characterization: reaction velocity versus diene and dienophile concentration
# Experimental: (A) Dependence of reaction velocity on diene concentration for different fixed dienophile concentrations. The diene concentration was varied from 3.0 to 0.18 mM with a fixed concentration of 100 mM (⋄), 66 mM (Δ), 44 mM (⋄), 30 mM (◯), 20 mM (◯), or 13 mM (●) dienophile (B) Dependence of reaction velocity on dienophile concentration for different fixed diene concentrations. The dienophile was varied from 100 to 13.0 mM with a fixed concentration of 3 mM (♦), 2 mM (▴), 1.3 mM (∇), 0.9 mM (Δ), 0.6 mM (⋄), 0.4 mM (□), 0.26 mM (◯), or 0.18 mM (●) […]. Reactions were carried out with 20 μM protein in PBS at 298 K.
# The kinetics of the DA—20—10 catalyzed reaction was characterized by measuring the dependence of the reaction velocity on the concentration of both diene and dienophile. The effective molarity (kcat/kuncat) of DA—20—10 is 100 M, and the rate enhancement (kcat/(kuncat*KM_diene)) in the presence of saturating dienophile and limiting diene is 1.0×10^5. At high substrate concentrations DA—20—10 proceeds for more than 30 turnovers before the enzyme loses activity. At higher enzyme concentrations more than 80% of the diene substrate is converted to product.
# The errors represent the calculated 95% confidence interval. The parameter a describes the cooperativity of binding between the two substrates: a value greater than one indicates negative cooperativity, whereas a value lower then one indicates positive cooperativity. α could not be determined for DA—20—00. Kinetic parameters for catalytic antibodies 7D4 and 4D5 were taken from (10, 17).
# [4] = Stereospecificity, chiral column LC-MSMS
# Experimental: The transition states which lead to the four possible ortho-stereoisomers are shown above the reaction chromatograms. Background reaction: 2 mM diene and 70 mM dieneophile in a PBS solution for 24 hours at 298 K. DA—20—10 reaction: 50 μM protein, 0.5 mM diene, and 10 mM dieneophile in a PBS solution for 48 hours at 298K. The four stereoisomers were separated using liquid chromatography (11), and samples injected onto a Daicel AD-H column.
# A liquid chromatography-tandem mass spectroscopy with a chiral column was used to detect each of the four experimentally observed stereoismers. The chiral column used in this work was the same as in (10), so it was predicted that the product peaks would come out in the same order. To validate that the endo and exo products came out as expected each was synthesized, and run either separately or together to identify the endo and exo peaks. The peaks observed come out in the same order and same time as reported in Cannizzaro et al. (10).
# In order to quantify the stereospecificity of DA—20—10, a reaction with 2 mM diene, 70 mM dieneophile, PBS, pH 7.4, in the presence or absence of 80 μM protein was run for 24 hr at 298K. […] The reactions were shaken for 5 minutes, centrifuged for 5 minutes, after which the organic layer was removed and analyzed with a LC-MSMS assay. […]
molecule,measurement,setting,value
B1,Relative Effect on Activity,[1],7.96
same,diene substrate converted to product,[2],more than 80%
same,increase in overall catalytic efficiency over the original design model DA_20_00,[3],roughly 2200 fold
same,kcat relative to those of 7D4 and 4D5,"[3]; DA_20_10 at 298K, antibodies at 310K",10 fold
same,rate enhancement (kcat/(kuncat*KM_diene)) relative to either antibody,"[3]; saturating dienophile and limiting diene, versus 7D4 and 4D5",20 fold
same,effective molarity (kcat/kuncat) relative to either antibody,[3]; versus 7D4 and 4D5,20 fold
same,"share of the expected 3R,4S product",[4],> 97%
same,stereospecificity,"[4]; 2 mM diene, 70 mM dienophile, PBS, pH 7.4, 80 μM protein, 24 hr, 298K",greater than 97 % ee
